Results as given in patent US20140120109A1 (Regeneron, published 2014).
Substitutions are numbered along the chain they refer to. Names and notes keep the numbering of the source.

B1: H4H1704N (antibody, human IgG4 S228P, V domains shown)
VH: EVQLVESGGGLVQPGGSLRLSCAVSGFTFSSYWMSWVRQAPGKGLEWVANIKEDGSEKNYVDSVKGRFTLSSDNAKNSLYLQMNSLRAEDTAVYYCAREDYDSYYKYGMDVWGQGTAVIVSS
VL: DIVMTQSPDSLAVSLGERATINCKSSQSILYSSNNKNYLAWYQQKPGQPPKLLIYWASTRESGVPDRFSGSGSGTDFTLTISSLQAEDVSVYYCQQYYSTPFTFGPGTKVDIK
notes: human IgG4(S108P) form of H2M1704N
B2: H4H1804N (antibody, human IgG4 S228P, V domains shown)
VH: QVQLHQWGAGLLKPSETLSLTCAVSGVSFSDYHWAWIRQSPGKGLEWIGDINHRGRTNYNPSLKSRVTISLDTSGNPFSLKLTSVTAADTAVYYCARDFPNWVFDSWGQGILVTVSS
VL: EIVLSQSPGTLSLSPGERATLSCRASQSVSSSFLAWYQQYPGQAPRLLIYGASRRATGIPDRFRGSGSGTDFTLTISRLEPEDFAVYYCQQYGSSPLTFGGGTKVENK
notes: human IgG4(S108P) form of H2M1804N
B3: H4H1742P (antibody, human IgG4 S228P, V domains shown)
VH: EVQLVESGGGLVQPGGSLRLSCAASGFTFSNYVMNWVRQAPGKGLEWVSVISGSGGSTHYADSVKGRFTISRDNSKDALYLQMNSLRAEDTAVYYCAKGPLEAYYYYNGMDVWGQGTTVTVSS
VL: DIQLTQSPSFLSASVGDRVTITCWASQAISSYLAWYQHKPGRAPKLLIYSTSTLQSGVPSRFSGSGSGTEFTLTISSLQPEDFATYYCQQLNSYPTFGQGTKLEIK

Experiments:
[1] = target: T1, mouse TL1A, soluble, CHO-expressed, residues 76-252 of SEQ ID NO:250 with N-terminal His6-tag (mouse, UniProt Q5UBV8 76-252); test: SPR 37C, mAb captured
T1 construct: also called mTL1A; mTL1A (CHO)
T1 sequence: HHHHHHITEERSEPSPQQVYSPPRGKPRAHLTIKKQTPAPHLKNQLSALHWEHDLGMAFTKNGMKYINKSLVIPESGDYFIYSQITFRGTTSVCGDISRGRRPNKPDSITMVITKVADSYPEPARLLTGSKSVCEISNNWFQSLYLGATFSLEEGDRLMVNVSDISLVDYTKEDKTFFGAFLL
Method in brief: (§1)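 Biacore T100 SPR with captured mAb and soluble TL1A/Fhm analyte; ka and kd fitted to a 1:1 model assuming monomeric TL1A. KD = kd/ka; t1/2 (min) = ln2/(60·kd).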

[2] = target: T2, rat TL1A, soluble, CHO-expressed, residues 76-252 of SEQ ID NO:258 with N-terminal His6-tag (rat, UniProt Q8K3Y7 76-252); test: SPR 37C, mAb captured
T2 construct: also called rTL1A; rTL1A (CHO)
T2 sequence: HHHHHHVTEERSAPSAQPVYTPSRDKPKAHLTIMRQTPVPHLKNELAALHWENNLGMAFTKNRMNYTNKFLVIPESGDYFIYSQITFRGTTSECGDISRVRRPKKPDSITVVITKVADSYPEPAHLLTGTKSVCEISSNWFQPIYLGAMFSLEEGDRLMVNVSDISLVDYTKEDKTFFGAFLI
Method in brief: as §1

[3] = target: T3, Fhm, hTL1A(Q167R), soluble, CHO-expressed, residues 72-251 of SEQ ID NO:246 (human, UniProt O95150 72-251); test: cell-based or functional assay
T3 chain: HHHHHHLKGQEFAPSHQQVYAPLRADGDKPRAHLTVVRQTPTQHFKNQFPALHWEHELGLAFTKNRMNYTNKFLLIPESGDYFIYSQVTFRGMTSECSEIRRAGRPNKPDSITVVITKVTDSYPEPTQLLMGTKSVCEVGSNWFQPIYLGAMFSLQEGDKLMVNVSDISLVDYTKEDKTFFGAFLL

[4] = target: T2, rat TL1A, soluble, CHO-expressed, …; test: cell-based or functional assay
[5] = target: T4, human TL1A, soluble, CHO-expressed, residues 72-251 of SEQ ID NO:244 with N-terminal His6-tag (human, UniProt O95150 72-251); test: SPR 37C, mAb captured
T4 construct: also called hTL1A; hTL1A (CHO)
T4 sequence: T3 chain with R102Q
Method in brief: as §1

[6] = target: T5, cynomolgus monkey TL1A, soluble, CHO-expressed, residues 72-251 of SEQ ID NO:248 with N-terminal His6-tag (cynomolgus monkey (Macaca fascicularis), UniProt O95150 72-251 (human entry)); test: SPR 37C, mAb captured
T5 construct: also called MfTL1A; MfTL1A (CHO)
T5 chain: T3 chain with F45L, I84V, R102Q
Method in brief: as §1

[7] = target: T6, Fhm, hTL1A(Q167R), soluble, E. coli-expressed, residues 72-251 of SEQ ID NO:246 (human, UniProt O95150 72-251); test: SPR 37C, mAb captured
T6 construct: with or without N-terminal Met
T6 chain: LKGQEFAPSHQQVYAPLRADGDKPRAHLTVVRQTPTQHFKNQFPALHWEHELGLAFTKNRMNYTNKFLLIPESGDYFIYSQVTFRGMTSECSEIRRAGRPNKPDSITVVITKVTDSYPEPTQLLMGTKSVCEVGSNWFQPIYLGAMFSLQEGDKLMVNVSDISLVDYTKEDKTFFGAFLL
Method in brief: as §1

[8] = target: T7, cynomolgus monkey TL1A, soluble, E. coli-expressed, residues 72-251 of SEQ ID NO:248 (cynomolgus monkey (Macaca fascicularis), UniProt O95150 72-251 (human entry)); test: SPR 37C, mAb captured
T7 construct: with or without N-terminal Met; also called MfTL1A (E. Coli)
T7 chain: T6 chain with F39L, I78V, R96Q
Method in brief: as §1

Binder	Kd [1] [nM]	t1/2 [1] [h]	Kd [2] [nM]	t1/2 [2] [h]	IC50, NFkB-luciferase reporter [3] [nM]	IC50, NFkB-luciferase reporter [4] [nM]	Kd [5] [nM]	t1/2 [5] [h]	Kd [6] [nM]	t1/2 [6] [h]	binding result [1]	Kd [7] [nM]	t1/2 [7] [h]	Kd [8] [nM]	t1/2 [8] [h]
B1	1.3	0.45	0.046	2.22	0.17	0.4									
B2			0.127	1.47	0.1	3.64	0.0458	4.77	0.078	2.78	no binding (tested: up to 100 nM)				
B3			0.653	0.45	0.53	6.12					no binding (tested: up to 100 nM)	0.696	0.75	0.945	0.583
